{"source": "patent US20220220224A1", "about": "(Hoffmann-La Roche, published 2022)", "key": {"[1]": {"target": "T1, recombinant biotinylated monomeric Fc fusion of human Folate Receptor 1 (huFolR1 ECD-AcTev-Fcknob-Avi tag … (human, UniProt P0DOX5 223-449 = IgG part, biotin on the C-terminal Avi tag))", "T1 construct": "also called huFolR1-Fc; human FolR1-Fc", "test": "SPR Biacore, avidity (bivalent, apparent KD), antigen-Fc on SA chip", "method": "(§1) The avidity of the interaction between the anti-FolR1 IgG or T cell bispecifics and the recombinant folate receptors was determined as described below (Table 25).\n(§2) Recombinant biotinylated monomeric Fc fusions of human, cynomolgus and murine Folate Receptor 1 (FolR1-Fc) were directly coupled on a SA chip using the standard coupling instruction (Biacore, GE Healthcare). The immobilization level was about 300-400 RU. The anti-FolR1 IgGs or T cell bispecifics were passed at a concentration range from 3.7 to 900 nM with a flow of 30 μL/minutes through the flow cells over 180 seconds. The dissociation was monitored for 240 or 600 seconds. The chip surface was regenerated after every cycle using a double injection of 30 sec 10 mM Glycine-HCl pH 2. Bulk refractive index differences were corrected for by subtracting the response obtained on reference flow cell immobilized with recombinant biotinylated murine CD134 Fc fusion. The binding curves resulting from the bivalent binding of the IgG or T cell bispecifics were approximated to a 1:1 Langmuir binding (even though it is a 1:2 binding) and fitted with that model to get an apparent KD representing the avidity of the bivalent binding. The apparent avidity constants for the interactions were derived from the rate constants of the fitting using the Bia Evaluation software (GE Healthcare). For the 1+1 T cell bispecifics format the interaction is a real 1:1 and the KD represents affinity since there is only one FolR1 binder in this construct."}, "[2]": {"target": "T2, recombinant biotinylated monomeric Fc fusion of cynomolgus Folate Receptor 1 (cy FolR1 ECD-AcTev-Fcknob-Avi … (cynomolgus, UniProt P0DOX5 223-449 = IgG part, biotin on the C-terminal Avi tag))", "T2 construct": "also called cyFolR1-Fc; cyno FolR1", "test": "SPR Biacore, avidity (bivalent, apparent KD), antigen-Fc on SA chip", "method": "as §1, §2"}, "[3]": {"target": "T3, recombinant biotinylated monomeric Fc fusion of murine Folate Receptor 1 (mu FolR1 ECD-AcTev-Fcknob-Avitag … (murine, UniProt P0DOX5 223-449 = IgG part, biotin on the C-terminal Avi tag))", "T3 construct": "also called muFolR1-Fc; murine FolR1", "test": "SPR Biacore, avidity (bivalent, apparent KD), antigen-Fc on SA chip", "method": "as §1, §2"}, "[4]": {"target": "T1, recombinant biotinylated monomeric Fc …", "test": "SPR Biacore, avidity (bivalent, apparent KD), antigen-Fc on SA chip", "method": "(§3) Binding of FolR1 binders as IgG or in the T-cell bispecific format to different recombinant folate receptors (human FolR1, 2 and 3, murine FolR1 and cynomolgus FolR1; all as Fc fusions) was assessed by surface plasmon resonance (SPR). All SPR experiments were performed on a Biacore T200 at 25° C. with HBS-EP as running buffer (0.01 M HEPES pH 7.4, 0.15 M NaCl, 3 mM EDTA, 0.005% Surfactant P20, Biacore, Freiburg/Germany).\n(§4) Recombinant biotinylated monomeric Fc fusions of human, cynomolgus and murine Folate Receptor 1 (FolR1-Fc) were directly coupled on a SA chip using the standard coupling instruction (Biacore, Freiburg/Germany). The immobilization level was about 300-400 RU. The anti-FolR1 IgGs or T cell bispecifics were passed at a concentration range from 2.1 to 500 nM with a flow of 30 μL/minutes through the flow cells over 180 seconds. The dissociation was monitored for 600 seconds. Bulk refractive index differences were corrected for by subtracting the response obtained on reference flow cell immobilized with recombinant biotinylated IL2 receptor Fc fusion. […] The binding curves resulting from the bivalent binding of the IgGs or T cell bispecifics were approximated to a 1:1 Langmuir binding and fitted with that model (which is not correct, but gives an idea of the avidity). The apparent avidity constants for the interactions were derived from the rate constants of the fitting using the Bia Evaluation software (GE Healthcare).", "remark": "listed apart in the source"}, "[5]": {"target": "T2, recombinant biotinylated monomeric Fc …", "test": "SPR Biacore, avidity (bivalent, apparent KD), antigen-Fc on SA chip", "method": "as §3, §4", "remark": "listed apart in the source"}, "[6]": {"target": "T3, recombinant biotinylated monomeric Fc …", "test": "SPR Biacore, avidity (bivalent, apparent KD), antigen-Fc on SA chip", "method": "as §3, §4", "remark": "listed apart in the source"}, "[7]": {"target": "T4, human FolR2 on transfected HEK cells (human, UniProt P14207 17-230)", "T4 construct": "whole, on cells", "T4 sequence (P14207 17-230)": "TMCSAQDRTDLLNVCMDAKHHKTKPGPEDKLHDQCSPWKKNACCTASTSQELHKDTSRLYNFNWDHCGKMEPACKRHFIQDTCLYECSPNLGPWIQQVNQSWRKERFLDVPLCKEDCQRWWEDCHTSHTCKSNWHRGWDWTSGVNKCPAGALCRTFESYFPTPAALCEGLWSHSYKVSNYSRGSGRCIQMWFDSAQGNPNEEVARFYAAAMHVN", "test": "flow cytometry on transfected HEK cells"}, "[8]": {"target": "T5, human FolR1 expressed on cells (HeLa, SKOV3, HT-29, transfected HEK cells) (human, UniProt P15328 25-234)", "T5 construct": "whole, on cells; also called FolR1 on HeLa cells; human FolR1 on cells", "T5 sequence (P15328 25-234)": "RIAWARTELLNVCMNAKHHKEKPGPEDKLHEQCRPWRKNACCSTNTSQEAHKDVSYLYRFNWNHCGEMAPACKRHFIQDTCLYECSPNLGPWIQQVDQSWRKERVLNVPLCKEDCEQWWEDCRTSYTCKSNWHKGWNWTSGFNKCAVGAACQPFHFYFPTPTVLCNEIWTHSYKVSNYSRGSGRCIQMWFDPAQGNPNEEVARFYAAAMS", "test": "flow cytometry on transfected HEK cells"}, "[9]": {"target": "T6, recombinant biotinylated monomeric Fc fusion of human Folate Receptor 3 (hu FolR3 ECD-AcTev-Fcknob-Avi tag … (human, UniProt P0DOX5 223-449 = IgG part, biotin on the C-terminal Avi tag))", "T6 construct": "also called FolR3-Fc", "test": "SPR Biacore, single injection on immobilized antigen-Fc", "method_in_brief": "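Biacore T200 at 25 °C in HBS-EP (HEPES pH 7.4). Biotinylated FolR-Fc fusions captured on SA chip at about 300-400 RU. IgGs injected once at 500 nM for 60 s to assess cross-reactivity and specificity.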"}}, "note": "Like-named read-outs stand apart in the source and are kept apart here."}
{"binder": "36F2 IgG (antibody, V domains shown) VH: QVQLVQSGAEVKKPGASVKVSCKASGYTFTSYYMHWVRQAPGQGLEWMGIINPSGGSTSYAQKFQGRVTMTHDTSTSTVYMELSSLRSEDTAVYYCARSFFTGFHLDYWGQGTLVTVSS VL: EIVLTQSPGTLSLSPGERATLSCRASQSVSSSYLAWYQQKPGQAPRLLIYGASSRATGIPDRFSGSGSGTDFTLTISRLEPEDFAVYYCQQYTNEHYYTFGQGTKVEIK", "values": [{"measurement": "Kd", "setting": "[1]", "value": 6, "unit": "nM"}, {"measurement": "koff", "setting": "[1]", "value": 0.013, "unit": "s⁻¹"}, {"measurement": "kon", "setting": "[1]", "value": "2.07e+06", "unit": "M⁻¹ s⁻¹"}, {"measurement": "Kd", "setting": "[2]", "value": 6, "unit": "nM"}, {"measurement": "koff", "setting": "[2]", "value": 0.0175, "unit": "s⁻¹"}, {"measurement": "kon", "setting": "[2]", "value": "2.78e+06", "unit": "M⁻¹ s⁻¹"}, {"measurement": "Kd", "setting": "[3]", "value": 2, "unit": "nM"}, {"measurement": "koff", "setting": "[3]", "value": 0.000823, "unit": "s⁻¹"}, {"measurement": "kon", "setting": "[3]", "value": 428000, "unit": "M⁻¹ s⁻¹"}, {"measurement": "Kd", "setting": "[4]", "value": 5.74, "unit": "nM"}, {"measurement": "koff", "setting": "[4]", "value": 0.0151, "unit": "s⁻¹"}, {"measurement": "kon", "setting": "[4]", "value": "2.62e+06", "unit": "M⁻¹ s⁻¹"}, {"measurement": "Kd", "setting": "[5]", "value": 5.31, "unit": "nM"}, {"measurement": "koff", "setting": "[5]", "value": 0.016, "unit": "s⁻¹"}, {"measurement": "kon", "setting": "[5]", "value": "3.02e+06", "unit": "M⁻¹ s⁻¹"}, {"measurement": "Kd", "setting": "[6]", "value": 1.63, "unit": "nM"}, {"measurement": "koff", "setting": "[6]", "value": 0.000603, "unit": "s⁻¹"}, {"measurement": "kon", "setting": "[6]", "value": 370000, "unit": "M⁻¹ s⁻¹"}, {"measurement": "binding result", "setting": "[7]", "value": "no binding"}, {"measurement": "binding result", "setting": "[8]", "value": "binds"}, {"measurement": "binding result", "setting": "[9]", "value": "no binding (tested: 500 nM)"}]}
